# According to the RNAGym collection of RNA variant scans (doi:10.1093/molbev/msab373):
# B1: Azoarcus group I ribozyme (parent)
# chain: GUGCCUUGCGCCGGGAAACCACGCAAGGGAUGGUGUCAAAUUCGGCGAAACCUAAGCGCCCGCCCGGGCGUAUGGCAACGCCGAGCCAAGCUUCGGCGCCUGCGCCGAUGAAGGUGUAGAGACUAGACGGCACCCACCUAAGGCAAACGCUAUGGUGAAGGCAUAGUCCAGGGAGUGGCGAAAGUCACACAAACCGG
# Variants of: B1
# Assay: reverse-splicing fitness (ratio to wild type); higher = more active; in vitro selection; Mg2+ level not given
# In short: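 An in vitro group I ribozyme library with randomized positions was T7-transcribed and gel-purified. In triplicate, 10 pmol RNA in EPPS pH 7.5 was reacted with 50 pmoles of a 30-nt RNA substrate for 1 h at 37 °C across several added MgCl2 levels (1–48 mM), then stopped with EDTA. Products were reverse transcribed from a substrate-complementary primer, PCR-amplified and sequenced (HiSeq 4000). Fitness is a variant's read proportion after selection over that before, normalised to wild type.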
row,Variant,reverse-splicing fitness
1,A111G A145C C150A C169A,0.00859
2,A111U A120C A145C C150A C169G U176C,0.00889
3,A111U A120C A145C C150A C169G U176G,0.00536
4,A111U A120C A145C C150A C169G U176A,0.0194
5,A111G A145U C169A,0.0537
6,A111G A145U C169G,0.13
7,A111G A145U C169U,0.194
8,A111U A120C A145C C169A U176G,0.00493
9,A111U A120C A145C C169A U176A,0.00934
10,A111U A120C A145C C169A U176C,0.00538
11,A111G A145G C150A C169U,0.0371
12,A111G A145G C150A C169G,0.0238
13,A111G A145G C150A C169A,0.0138
14,A111U A120C A145C C150G C169U U176G,0.00478
15,A111U A120C A145C C150G C169U U176A,0.0109
16,A111U A120C A145C C150G C169U U176C,0.0144
17,A111U A120C A145C C169A,0.00906
18,A111U A120C A145C C169G,0.00891
19,A111U A120C A145C C150G C169G U176A,0.00898
20,A111U A120C A145C C150G C169G U176C,0.0059
21,A111U A120C A145C C150G C169G U176G,0.00475

row,Variant,reverse-splicing fitness
1,A111G A145U C150A C169G,0.016
2,A111G A145U C150A C169A,0.0105
3,A111G A145U C150A C169U,0.0232
4,A111G A145U C150G,0.449
5,A111G A145U C150A,0.365
6,A111G A145U C150U,0.952
7,A111U A120C,0.587
8,A111G A120U C150U C169U,0.0666
9,A111G A145G C150G C169G U176A,0.00939
10,A111G A145G C150G C169G U176G,0.00506
11,A111G A145G C150G C169G U176C,0.00813
12,A111G C150U C169A U176C,0.0193
13,A111G C150U C169A U176A,0.0169
14,A111G C150U C169A U176G,0.00554
15,A111G A145U C169G U176C,0.0429
16,A111G A145U C169G U176G,0.00522
17,A111G A145U C169G U176A,0.0268
18,A111U A120C A145C C150A C169A U176C,0.00583
19,A111U A120C A145C C150A C169A U176G,0.00536
20,A111U A120C A145C C150A C169A U176A,0.0101
21,A111G C150G C169A U176G,0.00557

row,Variant,reverse-splicing fitness
1,A111G C150G C169A U176C,0.0111
2,A111G C150G C169A U176A,0.0101
3,A111G A145C C150G C169U U176A,0.00841
4,A111G A145C C150G C169U U176C,0.0138
5,A111G A145C C150G C169U U176G,0.00527
6,A111G A145C C150U U176G,0.23
7,A111G A145C C150U U176C,0.491
8,A111G A145C C150U U176A,0.456
9,A111G A145U C150U C169U U176A,0.0375
10,A111G A145U C150U C169U U176G,0.00691
11,A111G A145U C150U C169U U176C,0.056
12,A111U A120C A145C C150U C169U U176G,0.0056
13,A111U A120C A145C C150U C169U U176A,0.0199
14,A111U A120C A145C C150U C169U U176C,0.0178
15,A111G A145C C150U C169A,0.0167
16,A111G A145C C150U C169G,0.0327
17,A111G A145C C150U C169U,0.0495
18,A111G A145C C169A U176A,0.0126
19,A111G A145C C169A U176C,0.0139
20,A111G A145C C169A U176G,0.00444
21,A111G C150U C169U U176G,0.00703

row,Variant,reverse-splicing fitness
1,A111G C150U C169U U176A,0.0336
2,A111G C150U C169U U176C,0.0507
3,A111G A145U C150G C169U U176G,0.00488
4,A111G A145U C150G C169U U176A,0.00751
5,A111G A145U C150G C169U U176C,0.0148
6,A111G A145C C150G U176A,0.17
7,A111G A145C C150G U176C,0.212
8,A111G A145C C150G U176G,0.0319
9,A111G A145U C150A C169G U176A,0.014
10,A111G A145U C150A C169G U176C,0.0131
11,A111G A145U C150A C169G U176G,0.00512
12,A111U A120C A145C C169G U176A,0.023
13,A111G A145G C150U U176G,0.25
14,A111G A145G C150U U176A,0.72
15,A111G A145G C150U U176C,0.713
16,A111G A145C C150A U176A,0.129
17,A111G A145C C150A U176C,0.128
18,A111G A145C C150A U176G,0.0755
19,A111U A120C A145C C150G,0.0767
20,A111U A120C A145C C150U,0.17
21,A111U A120C A145C C150A,0.0343
